Read-outs that look alike come from different tables or passages of the source. Each block holds one binder with its values, some of them ahead of it.
Assays:
Assay in all cases: cell-based or functional assay
human RXFP1 [1] = target: T1, human RXFP1 (human, UniProt Q9HBX9 1-757)
T1 sequence (looked up): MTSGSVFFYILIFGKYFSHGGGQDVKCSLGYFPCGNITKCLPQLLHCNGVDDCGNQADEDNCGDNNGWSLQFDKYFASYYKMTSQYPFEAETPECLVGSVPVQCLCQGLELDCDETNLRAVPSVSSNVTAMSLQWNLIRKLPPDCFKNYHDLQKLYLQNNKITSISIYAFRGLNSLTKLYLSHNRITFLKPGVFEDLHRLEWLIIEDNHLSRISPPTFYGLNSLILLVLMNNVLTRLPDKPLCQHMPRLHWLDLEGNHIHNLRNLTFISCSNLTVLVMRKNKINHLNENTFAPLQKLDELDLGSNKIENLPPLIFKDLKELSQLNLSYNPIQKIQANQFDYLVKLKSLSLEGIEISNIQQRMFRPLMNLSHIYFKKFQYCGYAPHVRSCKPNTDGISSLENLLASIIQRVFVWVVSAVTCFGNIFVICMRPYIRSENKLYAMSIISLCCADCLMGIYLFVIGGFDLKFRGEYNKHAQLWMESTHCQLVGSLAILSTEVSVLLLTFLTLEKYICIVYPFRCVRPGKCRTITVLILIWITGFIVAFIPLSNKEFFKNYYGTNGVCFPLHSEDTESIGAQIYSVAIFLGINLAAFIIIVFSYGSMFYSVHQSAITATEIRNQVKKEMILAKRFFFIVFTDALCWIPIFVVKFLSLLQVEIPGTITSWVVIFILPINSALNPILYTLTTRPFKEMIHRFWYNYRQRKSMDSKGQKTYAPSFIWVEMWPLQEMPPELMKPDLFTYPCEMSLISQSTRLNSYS

mouse RXFP1 [2] = target: T2, mouse RXFP1 (mouse, UniProt Q6R6I7 1-758)
T2 sequence (looked up): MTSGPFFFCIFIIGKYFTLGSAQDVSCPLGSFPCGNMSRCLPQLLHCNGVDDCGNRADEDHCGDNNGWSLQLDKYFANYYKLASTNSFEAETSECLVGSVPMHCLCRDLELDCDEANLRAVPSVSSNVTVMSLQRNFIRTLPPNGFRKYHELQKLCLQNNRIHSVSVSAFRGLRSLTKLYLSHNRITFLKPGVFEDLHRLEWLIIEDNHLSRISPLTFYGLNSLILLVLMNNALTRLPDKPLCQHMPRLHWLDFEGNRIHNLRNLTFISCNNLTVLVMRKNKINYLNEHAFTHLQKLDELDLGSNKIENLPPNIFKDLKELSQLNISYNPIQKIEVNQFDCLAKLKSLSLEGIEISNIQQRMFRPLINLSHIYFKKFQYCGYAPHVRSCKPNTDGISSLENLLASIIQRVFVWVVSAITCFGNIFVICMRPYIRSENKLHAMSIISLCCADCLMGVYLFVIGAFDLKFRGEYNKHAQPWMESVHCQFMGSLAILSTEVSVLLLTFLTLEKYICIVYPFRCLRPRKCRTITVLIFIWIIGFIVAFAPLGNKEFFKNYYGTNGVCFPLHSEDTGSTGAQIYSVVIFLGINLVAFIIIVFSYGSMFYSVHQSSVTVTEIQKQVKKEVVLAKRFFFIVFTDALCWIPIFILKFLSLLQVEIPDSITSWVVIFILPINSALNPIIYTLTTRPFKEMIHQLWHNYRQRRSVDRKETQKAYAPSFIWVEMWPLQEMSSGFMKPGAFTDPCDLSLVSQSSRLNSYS

human RXFP2 [3] = target: T3, human RXFP2 (human, UniProt Q8WXD0 1-754)
human RXFP1 [4] = target: T1, human RXFP1; remark: listed apart in the source
mouse RXFP1 [5] = target: T2, mouse RXFP1; remark: listed apart in the source
human RXFP2 [6] = target: T3, human RXFP2; remark: listed apart in the source
human RXFP1 [7] = target: T1, human RXFP1; remark: listed apart in the source
mouse RXFP1 [8] = target: T2, mouse RXFP1; remark: listed apart in the source
human RXFP2 [9] = target: T3, human RXFP2; remark: listed apart in the source

T3 sequence (Q8WXD0 whole entry): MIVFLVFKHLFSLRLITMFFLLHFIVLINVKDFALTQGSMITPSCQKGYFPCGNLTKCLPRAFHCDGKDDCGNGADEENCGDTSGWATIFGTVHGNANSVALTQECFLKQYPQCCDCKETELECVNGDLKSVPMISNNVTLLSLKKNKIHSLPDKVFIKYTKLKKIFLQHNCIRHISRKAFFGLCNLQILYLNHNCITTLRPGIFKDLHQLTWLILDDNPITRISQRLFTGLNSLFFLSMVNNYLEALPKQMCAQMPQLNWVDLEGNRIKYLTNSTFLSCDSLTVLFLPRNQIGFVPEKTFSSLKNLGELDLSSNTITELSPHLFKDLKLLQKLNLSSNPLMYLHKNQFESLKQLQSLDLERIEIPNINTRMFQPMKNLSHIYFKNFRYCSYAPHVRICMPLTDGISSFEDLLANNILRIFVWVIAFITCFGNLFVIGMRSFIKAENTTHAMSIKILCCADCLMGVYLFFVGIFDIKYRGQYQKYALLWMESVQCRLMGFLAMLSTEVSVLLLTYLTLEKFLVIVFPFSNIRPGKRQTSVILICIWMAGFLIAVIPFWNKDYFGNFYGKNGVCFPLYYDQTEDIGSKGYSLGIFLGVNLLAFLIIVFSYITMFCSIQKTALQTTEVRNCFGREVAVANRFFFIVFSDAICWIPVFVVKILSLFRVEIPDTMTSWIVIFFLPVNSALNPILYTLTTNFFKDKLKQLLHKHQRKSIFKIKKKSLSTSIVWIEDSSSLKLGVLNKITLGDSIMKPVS

B1: RELAX0013 (ligand)
chain 1: DSWMEEVIKLCGRELVRAQIAICGMSTWS
chain 2: QLYSALANKCCHVGCTKRSLARFC
EC50 hRXFP1 (M), cAMP HTRF assay (human RXFP1 [1]): 1.15e-12 M | EC50 mRXFP1 (M), cAMP HTRF assay (mouse RXFP1 [2]): 7.54e-13 M | EC50 hRXFP2 (M), cAMP HTRF assay (human RXFP2 [3]): 1.75e-09 M | EC50 hRXFP1 (M), cAMP HTRF assay (human RXFP1 [4]): 1.15e-12 M | EC50 mRXFP1 (M), cAMP HTRF assay (mouse RXFP1 [5]): 7.54e-13 M | EC50 hRXFP2 (M), cAMP HTRF assay (human RXFP2 [6]): 1.75e-09 M | EC50 hRXFP1 (M), cAMP HTRF assay (human RXFP1 [7]): 1.15e-12 M | EC50 mRXFP1 (M), cAMP HTRF assay (mouse RXFP1 [8]): 7.54e-13 M | EC50 hRXFP2 (M), cAMP HTRF assay (human RXFP2 [9]): 1.75e-09 M

B4: RELAX0014 (ligand)
chain 1: MRVSEEWMDGFIRMCGREYARELIKICGASVGR
chain 2: ESGGLMSQQCCHVGCSRRSIAKLYC
EC50 hRXFP1 (M), cAMP HTRF assay (human RXFP1 [1]): 4.47e-12 M | EC50 mRXFP1 (M), cAMP HTRF assay (mouse RXFP1 [2]): 2.37e-12 M | EC50 hRXFP2 (M), cAMP HTRF assay (human RXFP2 [3]): 1.78e-12 M | EC50 hRXFP1 (M), cAMP HTRF assay (human RXFP1 [4]): 4.47e-12 M | EC50 mRXFP1 (M), cAMP HTRF assay (mouse RXFP1 [5]): 2.37e-12 M | EC50 hRXFP2 (M), cAMP HTRF assay (human RXFP2 [6]): 1.78e-12 M | EC50 hRXFP1 (M), cAMP HTRF assay (human RXFP1 [7]): 4.47e-12 M | EC50 mRXFP1 (M), cAMP HTRF assay (mouse RXFP1 [8]): 2.37e-12 M | EC50 hRXFP2 (M), cAMP HTRF assay (human RXFP2 [9]): 1.78e-12 M

Other lines, results leading:

EC50 hRXFP1 (M), cAMP HTRF assay (human RXFP1 [1]): 3.57e-11 M | EC50 mRXFP1 (M), cAMP HTRF assay (mouse RXFP1 [2]): 9.1e-12 M | EC50 hRXFP2 (M), cAMP HTRF assay (human RXFP2 [3]): 3.42e-08 M | EC50 hRXFP1 (M), cAMP HTRF assay (human RXFP1 [4]): 5.81e-11 M | EC50 mRXFP1 (M), cAMP HTRF assay (mouse RXFP1 [5]): 2.24e-11 M | EC50 hRXFP2 (M), cAMP HTRF assay (human RXFP2 [6]): 4.4e-08 M | EC50 hRXFP1 (M), cAMP HTRF assay (human RXFP1 [7]): 5.81e-11 M | EC50 mRXFP1 (M), cAMP HTRF assay (mouse RXFP1 [8]): 2.24e-11 M | EC50 hRXFP2 (M), cAMP HTRF assay (human RXFP2 [9]): 4.4e-08 M
B2: RELAX0019 (Fc fusion)
chain 1: GGAGGACPPCPAPEFEGGPSVFLFPPKPKDTLMISRTPEVTCVVVDVSHEDPEVKFNWYVDGVEVHNAKTKPREEQYNSTYRVVSVLTVLHQDWLNGKEYKCKVSNKALPASIEKTISKAKGQPREPQVYTLPPCREEMTKNQVSLWCLVKGFYPSDIAVEWESNGQPENNYKTTPPVLDSDGSFFLYSKLTVDKSRWQQGNVFSCSVMHEALHNHYTQKSLSLSPGGGGGSGGGGSGGGGSGGGGGSQLYSALANKCCHVGCTKRSLARFC
chain 2: GGAGGACPPCPAPEFEGGPSVFLFPPKPKDTLMISRTPEVTCVVVDVSHEDPEVKFNWYVDGVEVHNAKTKPREEQYNSTYRVVSVLTVLHQDWLNGKEYKCKVSNKALPASIEKTISKAKGQPREPQVCTLPPSREEMTKNQVSLSCAVKGFYPSDIAVEWESNGQPENNYKTTPPVLDSDGSFFLVSKLTVDKSRWQQGNVFSCSVMHEALHNHYTQKSLSLSPGGGGGSGGGGSGGGGSGGGGGSSWMEEVIKLCGRELVRAQIAICGMSTWS

EC50 hRXFP1 (M), cAMP HTRF assay (human RXFP1 [1]): 3.77e-11 M | EC50 mRXFP1 (M), cAMP HTRF assay (mouse RXFP1 [2]): 3.27e-11 M | EC50 hRXFP2 (M), cAMP HTRF assay (human RXFP2 [3]): 3.24e-08 M | EC50 hRXFP1 (M), cAMP HTRF assay (human RXFP1 [4]): 3.32e-11 M | EC50 mRXFP1 (M), cAMP HTRF assay (mouse RXFP1 [5]): 1.36e-11 M | EC50 hRXFP2 (M), cAMP HTRF assay (human RXFP2 [6]): 4.2e-08 M
B3: RELAX0023 (Fc fusion)
chain 1: DKTHTCPPCPAPEFEGGPSVFLFPPKPKDTLMISRTPEVTCVVVDVSHEDPEVKFNWYVDGVEVHNAKTKPREEQYNSTYRVVSVLTVLHQDWLNGKEYKCKVSNKALPASIEKTISKAKGQPREPQVYTLPPCREEMTKNQVSLWCLVKGFYPSDIAVEWESNGQPENNYKTTPPVLDSDGSFFLYSKLTVDKSRWQQGNVFSCSVMHEALHNHYTQKSLSLSPGGGGGSGGGGSGGGGSGGGGGSQLYSALANKCCHVGCTKRSLARFC
chain 2: DKTHTCPPCPAPEFEGGPSVFLFPPKPKDTLMISRTPEVTCVVVDVSHEDPEVKFNWYVDGVEVHNAKTKPREEQYNSTYRVVSVLTVLHQDWLNGKEYKCKVSNKALPASIEKTISKAKGQPREPQVCTLPPSREEMTKNQVSLSCAVKGFYPSDIAVEWESNGQPENNYKTTPPVLDSDGSFFLVSKLTVDKSRWQQGNVFSCSVMHEALHNHYTQKSLSLSPGGGGGSGGGGSGGGGSGGGGGSSWMEEVIKLCGRELVRAQIAICGMSTWS
